For one molecule, Kd results are on record in paper PMC4157346 (The Biochemical journal, 2013).

Assay [1] deals with CXCL8-(1-66) P32G mutant, 15N-labelled (human, 15N-labelled). In words: NMR titration.
Assay [2] addresses CXCL8-(1-66) truncated monomer (human). The experiment in a line: NMR titration.

For orientation: Kd means the constant that tells how readily two partners part at equilibrium. Lower therefore signals a tighter complex. As to LWTWFEDEFANATGMPPVEKDYSPCLVVTQTLNK [CXCR1 N-terminal domain peptide], the results for the Kd in assay [1] and in assay [2] were 11 ± 1 µM and 12 ± 2 µM, respectively.
